Consider two substances from patent publication US20240181074A1, “PEGYLATED T CELL ENGAGER WITH DUAL SPECIFICITIES TO CD3 AND CD19” (Shenzhen Enduring Biotech, Ltd., priority 2021, published 2024).

The conditions of series [1]: human, in vivo; cited from earlier work.
Series [2] deals with T1, human CD19 (Homo sapiens, UniProt P15391).
T1 sequence (P15391 20-291 limits assumed): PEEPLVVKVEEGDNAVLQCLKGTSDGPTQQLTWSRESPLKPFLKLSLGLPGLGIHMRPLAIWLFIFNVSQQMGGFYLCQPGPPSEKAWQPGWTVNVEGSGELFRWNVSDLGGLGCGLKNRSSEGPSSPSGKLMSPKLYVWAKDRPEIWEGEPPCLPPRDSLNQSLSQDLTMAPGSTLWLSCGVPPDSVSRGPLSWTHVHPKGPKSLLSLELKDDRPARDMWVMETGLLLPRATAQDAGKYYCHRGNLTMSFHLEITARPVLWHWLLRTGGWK
As to the kind of experiment: ELISA assay, binding to human CD19 protein. The note with it: OD450. On the procedure:
(§1) Plates were coated with SCACD3, CD3-PEG and JY108 respectively at 100 μl/well. […] After coating, each plate was washed for 3 times with PBST (200 μL/well). Next, each plate was blocked with 5% BSA in PBST at 37° C. for 2 hours. After blocking, each plate was washed with PBST for 3 times followed by the addition of either […], 0.1 μg, and 0 μg human CD19-Fc protein (Acrobiosystems, Code: CD9-H5259) in 0.5% BSA in PBST (10 μg/mL, 1 μg/mL, 0 μg/mL, 100 μL/well) or […] human CD3E&CD3D (Acrobiosytems, Code: CDD-H52W0) in 0.5% BSA in PBST (10 μg/mL, 100 μl/well) to corresponding wells. The plates were incubated at 37° C. for 1 hour followed by washing with PBST for 3 times. 100 μL of […] HRP conjugated anti-human IgG (GenScript, Code: A01854) was then added to each well. The plates were incubated at 37° C. for 1.5 hours. After incubation, each plate was washed with PBST for 3 times followed by the addition of 100 μL of TMB to each well. The development reaction for each plate was set in dark for 15 minutes and terminated with 100 μL/per well of stop solution.

The target in series [3] is T1, human CD19. As to the kind of experiment: BiaCore assay, binding to human CD19. The note with it: ligand human CD19 captured on chip. An excerpt: (§2) The anti-CD3 scFv (SCACD3) has the amino acid sequence set forth in SEQ ID NO: 2. The anti-CD19 scFv (SCACD19) has the amino acid sequence set forth in SEQ ID NO: 1. Methods for preparation of theses samples were described in detail in WO 2018/075308 A1.
(§3) General procedure: Diluted human CD19 (AcroBiosystems, Cat. CD19-H5259) or human CD3E&3D (AcroBiosystems, Cat. CDD-H52W0) were captured on the sensor chip through Fc capture method. The capture time for human CD3E & CD3D and for human CD19 was set for 12 s and 12-30 s respectively and capture flow rate was […]. Each sample tested was serially diluted into 6-8 concentrations. The association time and dissociation time for the analytes were set for 180 s and 420 s respectively, and the flow rate for the analyte was set at […]. For surface regeneration, 10 mM Glycine-HCl buffer was used; the contact time was set for 30 s and the flow rate was […]. Flow cell 1 and blank injection of buffer in each cycle were used as double references for Response Units subtraction. All data were processed using BiaCore T2000 Evaluation software (version 3.1).
For orientation: SPR reads the build-up and loss of mass on a sensor chip optically.

The test system of the next series is patients. The note with it: human, in vivo; cited from earlier work.
The next series has as its target T2, human CD3E&CD3D protein (Homo sapiens, UniProt P07766).
T2 construct: purchased AcroBiosystems CDD-H52W0
Nature of the series: ELISA assay, binding to human CD3E&CD3D protein. The note with it: coating concentration of 1 μg/ml, OD450. The method, then: as §1
On the technique in general: ELISA stands for enzyme-linked immunosorbent assay.

For series [4] the following is noted: in vivo; cited from earlier work.
Another series deals with T3, human CD3E&3D (Homo sapiens, UniProt P07766).
T3 construct: purchased AcroBiosystems CDD-H52W0
As to the kind of experiment: BiaCore assay, binding to human CD3E&3D. The note with it: ligand human CD3E&3D captured on chip.
Text: as §2, §3

For the next series, the system named is MS patients. The note with it: at 48 weeks; cited from earlier work.

pKd: −log10 of the molar value.

T3 sequence (P07766 23-126 limits assumed): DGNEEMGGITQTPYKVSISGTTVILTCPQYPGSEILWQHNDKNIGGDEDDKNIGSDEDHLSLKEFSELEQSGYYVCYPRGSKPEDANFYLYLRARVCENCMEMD
T3 sequence (P04234 22-105 partner limits assumed): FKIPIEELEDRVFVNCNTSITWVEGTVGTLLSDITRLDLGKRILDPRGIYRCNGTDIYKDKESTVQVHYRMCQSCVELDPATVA
T2 sequence (P07766 23-126 limits assumed): as the sequence (P07766 23-126 limits assumed) above
T2 sequence (P04234 22-105 partner limits assumed): as the sequence (P04234 22-105 partner limits assumed) above

Turning to “Blinatumomab: T-BsAb or BiTE (Bispecific T cell Engager) approved for ALL, redirecting T cells to CD19+ B cells; control drug”, the circulation half-life in series [1] is 1.25 h. In the series with human CD19 [2], the “ranking of binding to human CD19” value is “SCACD19>blinatumomab>JY108>SCACD19-linker”. In the series with human CD19 [3], this substance gave a pKd of 9.68, a ka of 1.92e+06 M⁻¹ s⁻¹ and a kd of 0.000397 s⁻¹. For the same substance, the pKd in the series with human CD19 [3] (listed as blinatumomab) is 9.68. Moreover, in the series with patients, the toxicity in patients result is “frequent cytokine release syndrome (CRS) and central nerve system (CNS) toxicity”. In the series with human CD3E&CD3D protein, the “ranking of affinity to human CD3E&CD3D” value is “SCACD3>blinatumomab>JY108>SCACD3-PEG”. The half-life entry in series [4] was “about 2 h”. Besides, in the series with human CD3E&3D, the pKd was 8.94, the ka turned out to be 1.08e+06 M⁻¹ s⁻¹ and the kd was found to be 0.00123 s⁻¹.

Turning to rituximab: anti-CD20 antibody, in the series with MS patients, the “MS patients experiencing relapse of the disease” value was roughly 20%.

As usually defined, the pKd is the Kd on a negative log10 scale, so that one unit is a factor of ten. Lower therefore signals a large Kd.
